Legend:
[1] = biological target: caveolin-1 (Cav-1), endogenous in human renal proximal tubule (hRPT) cells (human (endogenous in hRPT cells)) (UniProt Q03135); experiment: co-IP
[2] = biological target: adenylyl cyclase 5/6 (AC5/6), endogenous in HEK-293 cells (human (endogenous in HEK-293)) (UniProt O95622); experiment: co-IP

Chain of UniProt Q03135 (Q03135 whole entry): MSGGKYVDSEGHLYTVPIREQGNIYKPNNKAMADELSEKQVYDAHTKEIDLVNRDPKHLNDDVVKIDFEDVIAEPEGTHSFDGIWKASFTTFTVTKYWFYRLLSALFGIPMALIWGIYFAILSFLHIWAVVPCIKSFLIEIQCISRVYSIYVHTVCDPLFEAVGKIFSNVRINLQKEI

Row | Substance | density of the co-immunoprecipitated band (DU), cells with fenoldopam [1] | density of the co-immunoprecipitated band (DU), control cells [1] | density of the co-immunoprecipitated band (DU), cells with fenoldopam [2]
1 | adenylyl cyclase 5/6 (AC5/6), endogenous in human renal proximal tubule (hRPT) cells (from UniProt O95622 1-1261) (enzyme) | 148 DU | 70.3 DU | 
2 | human dopamine D1 receptor, Myc-tagged, heterologously expressed in HEK-293 cells (HEK-hD1R) (from UniProt P21728 1-446) |  |  | 41.9 DU
3 | human dopamine D5 receptor, V5-tagged, heterologously expressed in HEK-293 cells (HEK-hD5R) (from UniProt P21918 1-477) |  |  | 76.2 DU
